According to paper PMC5765332, “Evaluation of the Possible Utilization of ^68Ga-DOTATOC in Diagnosis of Adenocarcinoma Breast Cancer” (Asia Oceania Journal of Nuclear Medicine and Biology, 2018):

Experiments:
in vivo [1] = assay: in vivo; parameters: species or system BALB/c mice; conditions: female, BALB/c, mouse, iv, 5.55 MBq, total radioactivity
Experimental: (§1) A few BALB/c mice that previously injected with spontaneous Murine Mammary Adenocarcinoma Cells (MMAC) which has been histopathologically approved for invasive ductal carcinoma, grade II/III, ([18]) were provided from Pasteur Institute, Tehran, Iran. These mice breast tumor model were used for development of the tumor allograft in other healthy Balb/c mice. For this purpose, the tumor allograft development was performed according to the previously reported procedure ([19]). Adenocarcinoma breast tumors of the mice were brought out and divided to 2–3 mm^3 segments. These segments were implanted percutaneously in the right side of the flank of inbred female BALB/c mice (16–25 g, 6–8 weeks old, Pasteur Institute, Tehran, Iran). 24-31 days post implantation, the tumor volume reached 70–80 mm^3. 100 μL of the radiolabeled complex with approximately 5.55 MBq radioactivity was injected intravenously into the BALB/c mice with adenocarcinoma breast cancer through their tail vein. The total amount of radioactivity injected into each animal was measured by counting the 1-mL syringe before and after injection in a dose calibrator with the fixed geometry. Biodistribution of the complex among tissues was determined by sacrificing the BALB/c mice at each selected time (15, 30 and 60 m) after injection using the animal care protocols. Blood samples were rapidly taken after scarification. The tissues (heart, kidneys, spleen, stomach, intestine, lung, liver, skin, bone, muscle, adrenal, pancreas and tumor) were weighed and rinsed with normal saline and their activities were determined with a p-type coaxial HPGe detector coupled with a multichannel analyzer. The percentage of injected dose per gram (%ID/g) for different organs was calculated by dividing the activity amount of each tissue (A) to the decay-corrected injected activity and the mass of each organ. Four […] were considered for each time interval. All values were expressed as mean ± standard deviation (Mean±SD) and the data were compared using Student’s T-test. P values of < 0.05 were considered statistically significant.

[2] = tested on: BALB/c mice with adenocarcinoma breast cancer; assay: in vivo; conditions: mouse, iv
Experimental: as §1

in vivo [3] = assay: in vivo; parameters: species or system BALB/c mice; conditions: female, BALB/c, mouse, iv, 5.55 MBq, total radioactivity; remark: listed apart in the source
Experimental: A few BALB/c mice that previously injected with spontaneous Murine Mammary Adenocarcinoma Cells (MMAC) which has been histopathologically approved for invasive ductal carcinoma, grade II/III, ([18]) were provided from Pasteur Institute, Tehran, Iran. These mice breast tumor model were used for development of the tumor allograft in other healthy Balb/c mice. For this purpose, the tumor allograft development was performed according to the previously reported procedure ([19]). Adenocarcinoma breast tumors of the mice were brought out and divided to 2–3 mm^3 segments. These segments were implanted percutaneously in the right side of the flank of inbred female BALB/c mice (16–25 g, 6–8 weeks old, Pasteur Institute, Tehran, Iran). 24-31 days post implantation, the tumor volume reached 70–80 mm^3. 5.55 MBq of final ^68Ga-DOTATOC solution was injected intravenously into the mice through their tail veins. Static PET images were captured for 10 min with three sets of emission images starting 30, 60 and 120 min post injection. In addition, PET emission scans were preceded by CT scans performed for anatomical reference and attenuation correction (spatial resolution 1.25 mm, 80 kV, 150 mAs) with a total CT scanning time of 20 s. Reconstruction was performed using the iterative algorithm with attenuation correction. The reconstruction settings were 4 iterations and 21 subsets to a 256×256 matrix, with a post-filtering of 2 mm. Transmission data were reconstructed within a matrix of equal size by means of filtered back-projection, yielding a co-registered image set. The reconstructed emission images were reformatted into coronal, sagittal and maximum intensity projection (MIP) image sets. Maximum, average and minimum standardized uptake values (SUV) for the observable organs in the images were calculated based on the region of interest (ROI) and according to Eq. 1: where C is the tissue radioactivity concentration (kBq/mL), I is the decay-corrected amount of injected radiolabeled complex [kBq], and w is the weight (g).

Structure (SMILES): C[C@@H](O)[C@@H]1NC(=O)[C@H](CCCCN)NC(=O)[C@@H](Cc2c[nH]c3ccccc23)NC(=O)[C@H](Cc2ccc(O)cc2)NC(=O)[C@@H](NC(=O)[C@@H](Cc2ccccc2)NC(=O)CN2CCN(CC(=O)O)CCN(CC(=O)O)CCN(CC(=O)O)CC2)CSSC[C@@H](C(=O)N[C@H](CO)[C@@H](C)O)NC1=O [^68Ga-DOTATOC, metal not drawn]
- tissue to tissue ratio at 0.25 h (in vivo [1]; Tumor/blood ratio): 2.38
- tissue to tissue ratio at 0.5 h (in vivo [1]; Tumor/blood ratio): 3.37
- tissue to tissue ratio at 1 h (in vivo [1]; Tumor/blood ratio): 9.92
- tissue to tissue ratio at 0.25 h (in vivo [1]; Tumor/muscle ratio): 18.7
- tissue to tissue ratio at 0.5 h (in vivo [1]; Tumor/muscle ratio): 20.8
- tissue to tissue ratio at 1 h (in vivo [1]; Tumor/muscle ratio): 19.8
- blood clearance (in words) [2]: fast blood clearance
- SUV at 0.5 h (in vivo [3]): 0.66 SUV
- SUV at 1 h (in vivo [3]): 0.28 SUV
- SUV at 2 h (in vivo [3]): 0.18 SUV
